Test results taken from patent US5726291, “Amylase inhibitors” (Nisshin Flour Milling Co., Ltd., dated 1998).

T1: human pancreatic α-amylase (human, UniProt P04746)
T1 sequence: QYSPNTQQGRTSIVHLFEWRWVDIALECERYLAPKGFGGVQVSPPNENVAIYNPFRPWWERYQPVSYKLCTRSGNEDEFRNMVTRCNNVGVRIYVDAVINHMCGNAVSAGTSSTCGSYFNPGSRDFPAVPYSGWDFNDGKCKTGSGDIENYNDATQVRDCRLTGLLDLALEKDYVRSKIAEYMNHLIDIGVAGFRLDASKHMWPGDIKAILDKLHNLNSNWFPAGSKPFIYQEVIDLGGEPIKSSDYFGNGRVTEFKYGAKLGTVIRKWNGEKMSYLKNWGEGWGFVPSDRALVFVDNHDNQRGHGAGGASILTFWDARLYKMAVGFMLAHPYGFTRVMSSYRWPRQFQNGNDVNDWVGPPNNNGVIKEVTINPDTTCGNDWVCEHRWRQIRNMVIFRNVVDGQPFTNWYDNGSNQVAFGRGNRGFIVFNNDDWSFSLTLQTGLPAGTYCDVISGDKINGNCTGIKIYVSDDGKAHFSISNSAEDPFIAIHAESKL


The binders below were run against T1, human pancreatic α-amylase (assay: cell-based or functional assay).

Row | Binder | Amylase inhibitory activity (U/mg)
1 | Protein 0.28 AI (other) SGPWSWCNPATGYKVSALTGCRAMVKLQCVGSQVPEAVLRDCCQQLADINNEWCRCGDLSSMLRAVYQELGVREGKEVLPGCRKEVMKLTAASVPEVCKVPIPNPSGDRAGVCYGDWCAYPDV | 840 U/mg
2 | Protein 0.26 AI (other) SGPWMCYPGYAFKVPALPGCRPVLKLQCNGSQVPEAVLRDCCQQLADISEWCRCGALYSMLDSMYKEHGVQEGQAGTGAFPSCRREVVKLTAASITAVCKLPIVIDASGDGAYVCKGVAAYPDA | 26100 U/mg
3 | Protein 0.53 AI (other) SGPWMCYPGQAFQVPALPGCRPLLKLQCNGSQVPEAVLRDCCQQLADISEWPRCGALYSMLDSMYKEHGVSEGQAGTGAFPSCRREVVKLTAASITAVCRLPIVVDASGDGAYVCKDVAAYPDA | 3940 U/mg
4 | Protein 0.19 AI (other) SGPWMCYPGQAFQVPALPACRPLLRLQCNGSQVPEAVLRDCCQQLAHISEWCRCGALYSMLDSMYKEHGAQEGQAGTGAFPRCRREVVKLTAASITAVCRLPIVVDASGDGAYVCKDVAAYPDA | 20300 U/mg
5 | Protein (A) (other) SGPWMCYPGYAFKVPALPGCRPVLKLQCNGSQVPEAVLRDCCQQLADISEWCRCGALYSMLDSMYKEHGVQEGQAGTGAFPSCRREVVKLTAASITAVCKLPIVIDASGDGAYVCKGVAAYP | 20500 U/mg
